Source: patent publication US20240317838A1, “LACTOFERRIN COMPOSITIONS AND METHODS OF USE” (LACTEA THERAPEUTICS LLC, priority 2021, published 2024)

Tests used:
[1] = Differential Scanning calorimetry (DSC) of lactoferrin samples; type: physicochemical
Description: Di[…] calorimetry (DSC) was used to assess the hololactoferrin and apolactoferrin forms through monitoring unfolding temperatures of lactoferrin samples using a nanoDSC (TA Instruments, Lindon, UT) according to standard DSC protocols known to those of skill in the art (e.g., see Hinz et al “M[…] OF RESULTS OBTAINED ON […] DI[…] CALORIMETRY”; herein incorporated by reference for all purposes.
API-E2 Lactoferrin (10 mg/mL), produced as described herein, was assessed by DSC. […] The lack of other peaks indicates the lack of contaminants and impurities and can assess API-E2 as ˜100%. […] Additionally, the lack of other peaks also indicated the purity of API-E2 Lactoferrin. […] The API-E2 hololactoferrin peak has a Tm of 88.38+/−0.8 C and a delta H of 632.7+/−7.2 kJ/mol. The hololactoferrin natively accounted for on average 8.74+/−1.39% of the total API-E2 lactoferrin with apolactoferrin accounting for the rest in the samples tested. However, the hololactoferrin percentage can be naturally variable. The API-E2 was calculated by this technique to contain virtually 100% pure lactoferrin.
The assay was also performed with heat-treated API-E2 Lactoferrin. API-E2 Lactoferrin was heated across a range of 50-100° C.

lactoperoxidase (LPO) = experiment: Enzymatic assay for lactoperoxidase (LPO) activity; type: biochemical; conditions: colorimetric, turns blue in the presence of peroxidase activity
Source text: An enzymatic assay for lactoperoxidase (LPO) activity was developed utilizing a molecule which in the presence of peroxidase activity turns a blue color.

[2] = DSC iron binding capability with 1000× molar excess FeCl3; type: physicochemical; conditions: FeCl3 in 1000× molar excess
Description: The DSC assay was further used to assess Lactoferrin bioactivity, specifically the iron binding capability of the API-E2 Lactoferrin. Iron chloride (FeCl3) was added in 1000× molar excess to API-E2 Lactoferrin. In the presence of excess iron, the API-E2 lactoferrin will bind the iron to its open iron binding site.

[3] = test system: Salivary bacteria (including Lactobacillus, Lactococcus, and Streptococcus mutans); experiment: Salivary bacteria acid production by pH testing; type: cell-based; conditions: in the presence of sucrose
Description: Salivary bacteria (including Lactobacillus, Lactococcus, and Streptococcus mutans) produce acid during growth. This acidification is strongly associated with tooth decay, particularly when it results in pH below 5.5, which is a clinically relevant threshold. A slurry of these bacteria were treated with sucrose to stimulate growth, as well as varying concentrations of API-E2 lactoferrin. Upon the addition of sucrose and API-E2 lactoferrin, the pH was adjusted to 7 through a titration and the change in pH was subsequently monitored over the next 6 hours.

ECM of the buccal cells = experiment: ECM binding by immunofluorescence imaging in primary buccal cells; type: cell-based; conditions: 100 μg/mL, 1 hr at 37 C
Description: Primary buccal cells were next cultured according to a standard protocol (e.g., see Russo et al. Cytotechnology. 2016 October; 68(5): 2105-2114; herein incorporated by reference for all purposes). […] Immunofluorescence imaging was performed as previously described.

Molecule | % of Total, apolactoferrin ([1]; native, no added iron) | LPO enzymatic activity of the sample (lactoperoxidase (LPO)) | available Apolactoferrin shifted to the Hololactoferrin form upon addition of excess iron [2] [%] | pH maintained for the entire 6 hour testing period ([3]; 1 mg/mL) | pH maintained for the entire 6 hour testing period ([3]; 10 mg/mL) | ECM association of Lactoferrin (ECM of the buccal cells) | DSC peaks observed (apolactoferrin and hololactoferrin) ([1]; conditions as for API-E2) | apolactoferrin peak denaturation temperature ([1]; conditions as for API-E2) [°C] | hololactoferrin peak denaturation temperature ([1]; conditions as for API-E2) [°C]
API-E2: bovine lactoferrin purified from raw, untreated milk by cation exchange chromatography and filtration according to Example 1 (protein) APRKNVRWCTISQPEWFKCRRWQWRMKKLGAPSITCVRRAFALECIRAIAEKKADAVTLDGGMVFEAGRDPYKLRPVAAEIYGTKESPQTHYYAVAVVKKGSNFQLDQLQGRKSCHTGLGRSAGWVIPMGILRPYLSWTESLEPLQGAVAKFFSASCVPCIDRQAYPNLCQLCKGEGENQCACSSREPYFGYSGAFKCLQDGAGDVAFVKETTVFENLPEKADRDQYELLCLNNSRAPVDAFKECHLAQVPSHAVVARSVDGKEDLIWKLLSKAQEKFGKNKSRSFQLFGSPPGQRDLLFKDSALGFLRIPSKVDSALYLGSRYLTTLKNLRETAEEVKARYTRVVWCAVGPEEQKKCQQWSQQSGQNVTCATASTTDDCIVLVLKGEADALNLDGGYIYTAGKCGLVPVLAENRKTSKYSSLDCVLRPTEGYLAVAVVKKANEGLTWNSLKDKKSCHTAVDRTAGWNIPMGLIVNQTGSCAFDEFFSQSCAPGRDPKSRLCALCAGDDQGLDKCVPNSKEKYYGYTGAFRCLAEDVGDVAFVKNDTVWENTNGESTADWAKNLNREDFRLLCLDGTRKPVTEAQSCHLAVAPNHAVVSRSDRAAHVKQVLLHQQALFGKNGKNCPDKFCLFKSETKNLLFNDNTECLAKLGGRPTYEEYLGTEYVTAIANLKKCSTSPLLEACAFLTR | 91.26 +/− 1.39% ^ | neither detected by M/S or by the enzymatic assay | 100 | above 5.5 | above 5.5 | strong binding along the ECM | – | – | –
heat-treated API-E2 Lactoferrin: API-E2 Lactoferrin heated across a range of 50-100° C. (protein, UniProt P24627 20-708, looked up, heat-treated) Lactotransferrin: APRKNVRWCTISQPEWFKCRRWQWRMKKLGAPSITCVRRAFALECIRAIAEKKADAVTLDGGMVFEAGRDPYKLRPVAAEIYGTKESPQTHYYAVAVVKKGSNFQLDQLQGRKSCHTGLGRSAGWIIPMGILRPYLSWTESLEPLQGAVAKFFSASCVPCIDRQAYPNLCQLCKGEGENQCACSSREPYFGYSGAFKCLQDGAGDVAFVKETTVFENLPEKADRDQYELLCLNNSRAPVDAFKECHLAQVPSHAVVARSVDGKEDLIWKLLSKAQEKFGKNKSRSFQLFGSPPGQRDLLFKDSALGFLRIPSKVDSALYLGSRYLTTLKNLRETAEEVKARYTRVVWCAVGPEEQKKCQQWSQQSGQNVTCATASTTDDCIVLVLKGEADALNLDGGYIYTAGKCGLVPVLAENRKSSKHSSLDCVLRPTEGYLAVAVVKKANEGLTWNSLKDKKSCHTAVDRTAGWNIPMGLIVNQTGSCAFDEFFSQSCAPGADPKSRLCALCAGDDQGLDKCVPNSKEKYYGYTGAFRCLAEDVGDVAFVKNDTVWENTNGESTADWAKNLNREDFRLLCLDGTRKPVTEAQSCHLAVAPNHAVVSRSDRAAHVKQVLLHQQALFGKNGKNCPDKFCLFKSETKNLLFNDNTECLAKLGGRPTYEEYLGTEYVTAIANLKKCSTSPLLEACAFLTR | – | – | – | – | – | – | loss in both detectable peaks | – | –
Lab-grade standard lactoferrin: commercially available Sigma lab-grade standard lactoferrin (L9507) (protein, UniProt P24627 20-708, looked up) Lactotransferrin: APRKNVRWCTISQPEWFKCRRWQWRMKKLGAPSITCVRRAFALECIRAIAEKKADAVTLDGGMVFEAGRDPYKLRPVAAEIYGTKESPQTHYYAVAVVKKGSNFQLDQLQGRKSCHTGLGRSAGWIIPMGILRPYLSWTESLEPLQGAVAKFFSASCVPCIDRQAYPNLCQLCKGEGENQCACSSREPYFGYSGAFKCLQDGAGDVAFVKETTVFENLPEKADRDQYELLCLNNSRAPVDAFKECHLAQVPSHAVVARSVDGKEDLIWKLLSKAQEKFGKNKSRSFQLFGSPPGQRDLLFKDSALGFLRIPSKVDSALYLGSRYLTTLKNLRETAEEVKARYTRVVWCAVGPEEQKKCQQWSQQSGQNVTCATASTTDDCIVLVLKGEADALNLDGGYIYTAGKCGLVPVLAENRKSSKHSSLDCVLRPTEGYLAVAVVKKANEGLTWNSLKDKKSCHTAVDRTAGWNIPMGLIVNQTGSCAFDEFFSQSCAPGADPKSRLCALCAGDDQGLDKCVPNSKEKYYGYTGAFRCLAEDVGDVAFVKNDTVWENTNGESTADWAKNLNREDFRLLCLDGTRKPVTEAQSCHLAVAPNHAVVSRSDRAAHVKQVLLHQQALFGKNGKNCPDKFCLFKSETKNLLFNDNTECLAKLGGRPTYEEYLGTEYVTAIANLKKCSTSPLLEACAFLTR | – | does not result in a positive enzymatic reaction | – | – | – | only limited ECM association | significantly smaller than those observed for API-E2 and less defined | 55 | 85
